Results published in patent US20220411483A1 (Chugai, published 2022).
Substitutions are numbered along the chain they refer to. Each block holds one binder with its values, some of them ahead of it.

What was measured:
FcgRIIaR = biological target: T1, FcgRIIaR (human, UniProt P12318 34-217); test: SPR, amount bound per captured antibody
T1 construct: extracellular domain; also called FcγRIIa R type; FcγRIIa (R type)
T1 sequence (looked up): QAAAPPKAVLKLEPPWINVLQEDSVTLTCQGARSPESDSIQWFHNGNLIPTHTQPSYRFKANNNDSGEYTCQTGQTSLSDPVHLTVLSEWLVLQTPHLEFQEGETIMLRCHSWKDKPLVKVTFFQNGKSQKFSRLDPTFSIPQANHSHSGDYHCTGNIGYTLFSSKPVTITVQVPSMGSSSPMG

FcgRIIb = biological target: T2, FcgRIIb (human, UniProt P31994 43-217); test: SPR, amount bound per captured antibody
T2 construct: extracellular domain; also called FcγRIIb
T2 sequence (looked up): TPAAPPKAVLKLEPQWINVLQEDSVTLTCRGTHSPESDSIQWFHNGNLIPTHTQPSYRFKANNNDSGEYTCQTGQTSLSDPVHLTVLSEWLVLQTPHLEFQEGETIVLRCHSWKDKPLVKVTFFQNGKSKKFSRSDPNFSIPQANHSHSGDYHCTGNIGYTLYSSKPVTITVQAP

human complement C1q = biological target: T3, human complement C1q (human, UniProt P02745 23-245; P02746 28-253; P02747 29-245); test: SPR, C1q bound per antibody captured on Protein L
T3 construct: Bought (PROSPEC or Calbiochem); also called human C1q
Protocol: The interaction between an antibody and human C1q was analyzed using Biacore T200 (GE Healthcare). HBS-EP+ (GE Healthcare) was used as the running buffer, and the measurement temperature was set at 25° C. Chips produced by immobilizing Protein L (ACTIGEN or BioVision) onto Series S sensor Chip CM4 (GE Healthcare) by amine coupling were used.
The antibodies of interest were captured onto these sensor chips, and allowed to interact with human complement C1q (PROSPEC or Calbiochem) diluted in the running buffer. The amount of antibody binding was determined, and comparisons were made among the antibodies. However, since the amount of C1q bound depends on the amount of captured antibodies, corrected values obtained by dividing the amount of C1q bound by the amount of each antibody captured were compared. Furthermore, by reaction with 10 mM glycine-HCl, pH 1.5, the antibodies captured onto the sensor chips were washed, and the sensor chips were recycled and reused.

T3 sequence (P02745 23-245 limits assumed, chain 1 of 3): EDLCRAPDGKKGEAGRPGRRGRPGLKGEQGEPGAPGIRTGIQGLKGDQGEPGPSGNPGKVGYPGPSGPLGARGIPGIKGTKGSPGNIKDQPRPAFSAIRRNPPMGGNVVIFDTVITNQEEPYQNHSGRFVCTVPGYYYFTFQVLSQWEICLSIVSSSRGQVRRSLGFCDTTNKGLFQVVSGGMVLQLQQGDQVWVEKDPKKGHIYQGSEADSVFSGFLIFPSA
T3 sequence (P02746 28-253 limits assumed, chain 2 of 3): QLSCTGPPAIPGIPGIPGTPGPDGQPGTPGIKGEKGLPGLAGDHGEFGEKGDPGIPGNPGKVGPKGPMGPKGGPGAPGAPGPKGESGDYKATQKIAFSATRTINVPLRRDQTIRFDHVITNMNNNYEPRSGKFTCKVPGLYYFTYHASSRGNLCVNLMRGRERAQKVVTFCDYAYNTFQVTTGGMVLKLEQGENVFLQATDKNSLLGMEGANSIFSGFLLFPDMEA
T3 sequence (P02747 29-245 limits assumed, chain 3 of 3): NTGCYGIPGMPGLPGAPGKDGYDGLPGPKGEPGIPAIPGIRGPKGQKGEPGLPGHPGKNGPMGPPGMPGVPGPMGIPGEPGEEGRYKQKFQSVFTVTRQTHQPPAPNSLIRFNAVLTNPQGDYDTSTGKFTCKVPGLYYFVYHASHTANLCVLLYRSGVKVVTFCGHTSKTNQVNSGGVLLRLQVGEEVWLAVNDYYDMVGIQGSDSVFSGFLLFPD

Relative FcgRIIaR-binding Activity (FcgRIIaR): 9 IL6R-G1d/IL6R-L=100 | Relative FcgRIIb-binding Activity (FcgRIIb): 100 IL6R-G1d/IL6R-L=100 | Amount of C1q-binding when that for G1d is Defined as 100 (human complement C1q): 22.8 G1d=100
B1: IL6R-P729/IL6R-L (antibody, human IgG1, kappa)
heavy: QVQLQESGPGLVKPSETLSLTCAVSGHSISHDHAWSWVRQPPGEGLEWIGFISYSGITNYNPSLQGRVTISRDNSKNTLYLQMNSLRAEDTAVYYCARSLARTTAMDYWGEGTLVTVSSASTKGPSVFPLAPSSKSTSGGTAALGCLVKDYFPEPVTVSWNSGALTSGVHTFPAVLQSSGLYSLSSVVTVPSSSLGTQTYICNVNHKPSNTKVDKKVEPKSCDKTHTCPPCPAPELFGQDSVMLFPPKPKDTLMISRTPEVTCVVVDVSPEDPEVKFNWYVDGVEVHNAKTKPREEQENSTYRVVSVLTVLHQDWLNGKEYKCKVSNKALPAPIEKTISKAKGQPREPQVYTLPPSRDELTKNQVSLTCLVKGFYPSDIAVEWESNGQPENNYKTTPPVLDSDGSFFLYSKLTVDKSRWQQGNVFSCSVMHEALHNHYTQKSLSLSP
light: not shown

Relative FcgRIIaR-binding Activity (FcgRIIaR): 10.4 IL6R-G1d/IL6R-L=100 | Relative FcgRIIb-binding Activity (FcgRIIb): 103 IL6R-G1d/IL6R-L=100 | Amount of C1q-binding when that for G1d is Defined as 100 (human complement C1q): 14 G1d=100
B2: IL6R-P753/IL6R-L (antibody, human IgG1, kappa)
heavy: B1 heavy with K324E, S326H
light: not shown

Relative FcgRIIaR-binding Activity (FcgRIIaR): 9.8 IL6R-G1d/IL6R-L=100 | Relative FcgRIIb-binding Activity (FcgRIIb): 130 IL6R-G1d/IL6R-L=100 | Amount of C1q-binding when that for G1d is Defined as 100 (human complement C1q): 14.4 G1d=100
B3: IL6R-P755/IL6R-L (antibody, human IgG1, kappa)
heavy: B1 heavy with F237L, K324E, S326H, A332H
light: not shown

Relative FcgRIIaR-binding Activity (FcgRIIaR): 7 IL6R-G1d/IL6R-L=100 | Relative FcgRIIb-binding Activity (FcgRIIb): 57.5 IL6R-G1d/IL6R-L=100 | Amount of C1q-binding when that for G1d is Defined as 100 (human complement C1q): 1.4 G1d=100
B4: IL6R-P746/IL6R-L (antibody, human IgG1, kappa)
heavy: B1 heavy with P270H, K324A
light: not shown

Relative FcgRIIaR-binding Activity (FcgRIIaR): 80.9 IL6R-G1d/IL6R-L=100 | Relative FcgRIIb-binding Activity (FcgRIIb): 305 IL6R-G1d/IL6R-L=100 | Amount of C1q-binding when that for G1d is Defined as 100 (human complement C1q): 14 G1d=100
B5: IL6R-P768/IL6R-L (antibody, human IgG1, kappa)
heavy: QVQLQESGPGLVKPSETLSLTCAVSGHSISHDHAWSWVRQPPGEGLEWIGFISYSGITNYNPSLQGRVTISRDNSKNTLYLQMNSLRAEDTAVYYCARSLARTTAMDYWGEGTLVTVSSASTKGPSVFPLAPSSKSTSGGTAALGCLVKDYFPEPVTVSWNSGALTSGVHTFPAVLQSSGLYSLSSVVTVPSSSLGTQTYICNVNHKPSNTKVDKKVEPKSCDKTHTCPPCPAPELLGGDSVFLFPPKPKDTLMISRTPEVTCVVIDVAHEDGEVKFNWYVDGVEVHNAKTKPREEQYNSTYRVVSVLTVLHQDWLNGKEYKCKVSNKGLPSSIEKTISKAKGQPREPQVYTLPPSRDELTKNQVSLTCLVKGFYPSDIAVEWESNGQPENNYKTTPPVLDSDGSFFLYSKLTVDKSRWQQGNVFSCSVMHEALHNHYTQKSLSLSP
light: not shown

Relative FcgRIIaR-binding Activity (FcgRIIaR): 5.1 IL6R-G1d/IL6R-L=100 | Relative FcgRIIb-binding Activity (FcgRIIb): 42.7 IL6R-G1d/IL6R-L=100 | Amount of C1q-binding when that for G1d is Defined as 100 (human complement C1q): 1.4 G1d=100
B6: IL6R-P748/IL6R-L (antibody, human IgG1, kappa)
heavy: B1 heavy with F237L, K324A, A332H
light: not shown

Relative FcgRIIaR-binding Activity (FcgRIIaR): 89.5 IL6R-G1d/IL6R-L=100 | Relative FcgRIIb-binding Activity (FcgRIIb): 329 IL6R-G1d/IL6R-L=100 | Amount of C1q-binding when that for G1d is Defined as 100 (human complement C1q): 23.1 G1d=100
B7: IL6R-P764/IL6R-L (antibody, human IgG1, kappa)
heavy: B5 heavy with A269S, H270E, G329A, S332A, S333P
light: not shown

Relative FcgRIIaR-binding Activity (FcgRIIaR): 101 IL6R-G1d/IL6R-L=100 | Relative FcgRIIb-binding Activity (FcgRIIb): 332 IL6R-G1d/IL6R-L=100 | Amount of C1q-binding when that for G1d is Defined as 100 (human complement C1q): 41.7 G1d=100
B8: IL6R-P763/IL6R-L (antibody, human IgG1, kappa)
heavy: B5 heavy with I266V, H270E, G329A, S332A, S333P
light: not shown

Relative FcgRIIaR-binding Activity (FcgRIIaR): 92.4 IL6R-G1d/IL6R-L=100 | Relative FcgRIIb-binding Activity (FcgRIIb): 323 IL6R-G1d/IL6R-L=100 | Amount of C1q-binding when that for G1d is Defined as 100 (human complement C1q): 15 G1d=100
B9: IL6R-P756/IL6R-L (antibody, human IgG1, kappa)
heavy: B5 heavy with E235D, H270E
light: not shown

Relative FcgRIIaR-binding Activity (FcgRIIaR): 13.7 IL6R-G1d/IL6R-L=100 | Relative FcgRIIb-binding Activity (FcgRIIb): 95.4 IL6R-G1d/IL6R-L=100 | Amount of C1q-binding when that for G1d is Defined as 100 (human complement C1q): 20.9 G1d=100
B10: IL6R-P745/IL6R-L (antibody, human IgG1, kappa)
heavy: B1 heavy with F237L, Q239G, M243F, P270H, E298Y, S300A, K324E
light: not shown

Relative FcgRIIaR-binding Activity (FcgRIIaR): 8.1 IL6R-G1d/IL6R-L=100 | Relative FcgRIIb-binding Activity (FcgRIIb): 84.8 IL6R-G1d/IL6R-L=100 | Amount of C1q-binding when that for G1d is Defined as 100 (human complement C1q): 23 G1d=100
B11: IL6R-P733/IL6R-L (antibody, human IgG1, kappa)
heavy: B1 heavy with S326H
light: not shown

Relative FcgRIIaR-binding Activity (FcgRIIaR): 97.1 IL6R-G1d/IL6R-L=100 | Relative FcgRIIb-binding Activity (FcgRIIb): 304 IL6R-G1d/IL6R-L=100 | Amount of C1q-binding when that for G1d is Defined as 100 (human complement C1q): 21.7 G1d=100
B12: IL6R-P760/IL6R-L (antibody, human IgG1, kappa)
heavy: B5 heavy with G239D, I266V, A269S, H270E
light: not shown

Relative FcgRIIaR-binding Activity (FcgRIIaR): 7.4 IL6R-G1d/IL6R-L=100 | Relative FcgRIIb-binding Activity (FcgRIIb): 72.5 IL6R-G1d/IL6R-L=100 | Amount of C1q-binding when that for G1d is Defined as 100 (human complement C1q): 13.9 G1d=100
B13: IL6R-P751/IL6R-L (antibody, human IgG1, kappa)
heavy: B1 heavy with K324E
light: not shown

Relative FcgRIIaR-binding Activity (FcgRIIaR): 13.5 IL6R-G1d/IL6R-L=100 | Relative FcgRIIb-binding Activity (FcgRIIb): 69.4 IL6R-G1d/IL6R-L=100 | Amount of C1q-binding when that for G1d is Defined as 100 (human complement C1q): 20.9 G1d=100
B14: IL6R-P743/IL6R-L (antibody, human IgG1, kappa)
heavy: B5 heavy with I266V, A269S, G273P
light: not shown
